Results as given in article PMC11989750, “Mating Increases CHST10 Activity in Rat Oviductal Mucosa to Induce the Synthesis of HNK-1 Glycoproteins: Possible Role in Sperm–Oviduct Interactions” (International Journal of Molecular Sciences, 2025).

What was measured:
[1] = substrate: O=C1OC(c2ccc(O)cc2)(c2ccc(O[C@@H]3O[C@H](C(=O)O)[C@@H](O)[C@H](O)[C@H]3O)cc2)c2ccccc21; assay: malachite green phosphate assay coupled to phosphatase CP3, A620; assay type: biochemical, Homo sapiens; settings: acceptor substrate, PAPS as donor, 37 °C, 20 min
[2] = substrate: [H][C@@]12CCc3cc(O[C@@H]4O[C@H](C(=O)O)[C@@H](O)[C@H](O)[C@H]4O)ccc3[C@@]1([H])CC[C@]1(C)[C@@H](O)CC[C@@]21[H]; assay: as above; assay type: biochemical, Homo sapiens; settings: acceptor substrate, PAPS as donor, 37 °C, 20 min

B1: human recombinant CHST10 (Homo sapiens) (protein)
chain: TFKDPDVYSAKQEFLFLTTMPEVRKLPEEKHIPEELKPTGKELPDSQLVQPLVYMERLELIRNVCRDDALKNLSHTPVSKFVLDRIFVCDKHKILFCQTPKVGNTQWKKVLIVLNGAFSSIEEIPENVVHDHEKNGLPRLSSFSDAEIQKRLKTYFKFFIVRDPFERLISAFKDKFVHNPRFEPWYRHEIAPGIIRKYRRNRTETRGIQFEDFVRYLGDPNHRWLDLQFGDHIIHWVTYVELCAPCEIMYSVIGHHETLEDDAPYILKEAGIDHLVSYPTIPPGITVYNRTKVEHYFLGISKRDIRRLYARFEGDFKLFGYQKPDFLLN
notes: commercial recombinant protein (R&D Systems 6140-ST)
Km [1]: 41.6 ± 2.4 µM | Km [2]: 73.9 ± 5.4 µM
